The text below walks through data of patent US9402875B2, “Amidated dopamine neuron stimulating peptide restoration of mitochondrial activity” (University of Kentucky Research Foundation, priority 2006, dated 2016).

The test system of test [1] is Erk1/2. The test is described as follows: ERK1/2 activation by western blot. To be noted: DNSP-11 0.1 uM or 1 uM or GDNF 50 ng/ml for 20 minutes. The test is classed as cell-based. How it is done: MN9D and B65 cell were cultured in DMEM; 11995 (containing pyridoxol HCl; Sigma, St. Louis, Mo.) supplemented with 10% fetal bovine serum (HyClone, Logan, Utah), 50 U/mL penicillin and streptomycin with DNSP-11 (0.1 uM or 1 uM) or GDNF (50 ng/ml) for 20 minutes. The cells were then solubilized in Triton-X-100/glycerol lysis buffer and subjected to electrophoresis and western blotting as partially described previously (Jiang et al., Mol Biol Cell 14:859-70 (2003)). To detect phosphorylated Erk (#4377 Cell Signaling) and ERK (#4696 Cell Signaling) by immunoblotting, the cells were directly lysed in the sample loading buffer. Secondary IRDye 700X and IRDye800 conjugated, fluorescent antibodies (Rockland Inc.) were used to detect signal with Odyssey v3.0 scanning software. Several blots were analyzed to determine the linear range of the fluorescence signals, and quantifications were performed using densitometry analysis.

The test system of test [2] is young and aged rats. To be noted: Hebert et al. 1996, 1997, cited from earlier work.
Test [3] deals with MN9D dopaminergic cells. Put plainly: Caspase-3 activity assay, protection against 6-OHDA toxicity. It is filed as cell-based. As to conditions: 1 ng/mL for 1 hour before 100 μM 6-OHDA for 15 min; at 3 h. How it is done: (§1) MN9D Cell Cultures: The MN9D cell line has been described by Choi (1991) Brain Res. 552:67-76 and was a gift from Michael Zigmond. Cells were cultured in DMEM supplemented with 10% Fetal Bovine Serum (FBS, Hyclone), 50 U/mL penicillin and streptomycin. For experiments, the cells were plated on 24-well poly-D-lysine in DMEM with 1% (v/v) penicillin-streptomycin. The cells were grown at 37° C. in 5% CO2.
Caspase-3 Activity Assay in MN9D Cells: MN9D cells were plated to 100,000 cells/well. Cell cultures were exposed to DNSP-11 (1 ng/mL) or buffer for 1 hour prior to 15 min 100 μM 6-OHDA exposure. Caspase-3 activity was monitored after 3 hours by fluorescence (excitation/emission 496/520 nm) using the Enz Chek Caspase-3 kit. Protein levels of lysed cells were measured by BCA assay (BioRad) and normalized for every experiment. Data expressed as % control and repeated a minimum of 3 times.
To evaluate DNSP-11's neuroprotective properties, DNSP-11 was compared to GDNF in its protection against 6-OHDA-induced toxicity in the dopaminergic cell line, MN9D. MN9D dopaminergic cells were incubated for 1 hour with either citrate buffer (control), 1 ng/mL of DNSP-11 or GDNF prior to 100 μM 6-OHDA exposure for 15 min. Data are +SD, one-way ANOVA with Tukey's post hoc analysis, *p<0.05, **p<0.01, ***p<0.001 vs. control; #p<0.05, ##p<0.01, ###p<0.001 vs. 6-OHDA.

In test [4] the target is GAPDH (Homo sapiens, UniProt P04406). The test is described as follows: Gel filtration analysis of interaction between GAPDH and GDNF. The test is classed as binding. To be noted: equimolar solution, pre-equilibrated 1 h, Sephacryl S-200. How it is done:
A gel filtration study was performed using a 120 mL Sephacryl S-200 column at a constant 1 mL/min flow rate. Individual 300 μM solutions of GAPDH (˜150 kDa; FIG. 14, dotted line) or GDNF (˜30 kDa; FIG. 14, dashed line) eluted at expected retention times for their sizes of 50 min (FIG. 14, star) and 64 min (FIG. 14, pound sign), respectively. When a pre-equilibrated (1 h), equimolar solution of GAPDH and GDNF was analyzed by gel filtration chromatography, two equally intense peaks were observed (FIG. 14, solid line) with retention times identical to the individual solutions.
Background: SEC sorts molecules by how far they enter the pores of the column.

In test [5] the test system is MN9D dopaminergic cells. Put plainly: TUNEL assay, protection against 6-OHDA toxicity. It is filed as cell-based. To be noted: 1 ng/mL for 1 hour before 100 μM 6-OHDA for 15 min; at 24 h. The method, then:
as §1
Terminal dUTP Nick-End Labeling (TUNEL) Assay in MN9D Cells: After treatment with DNSP-11, MN9D cells were fixed and labelled to assess degenerative nuclear changes as indicated by the extent of high-molecular weight DNA strand breaks. DNA fragmentation was detected by using steptavidin-horseradish peroxidise conjugate followed by the substrate diaminobenzidine (DAB) generating a colored precipitate. Ratios between apoptotic and total cells were determined (4 random fields/well; 4 wells/ group). Experiments were repeated 3 times.
To evaluate DNSP-11's neuroprotective properties, DNSP-11 was compared to GDNF in its protection against 6-OHDA-induced toxicity in the dopaminergic cell line, MN9D. MN9D dopaminergic cells were incubated for 1 hour with either citrate buffer (control), 1 ng/mL of DNSP-11 or GDNF prior to 100 μM 6-OHDA exposure for 15 min. […]

The subject of test [6] is E14 SD rat embryo primary dopaminergic neurons from the ventral mesencephalon. It is filed as cell-based. The method, then:
DNSP-11 treatment of Mesencephalic Cells: Timed pregnant SD rats (Harlan) were used to obtain the ventral mesencephalon from E14 fetuses. The dissected tissue was collected in cold Neurobasal™ medium and rinsed twice with cold Dulbecco's PBS. The cells were chemically (TrypLE®) and mechanically dissociated to yield a single cell suspension. The solution was centrifuged at 169 g for 6 minutes and the pellet was resuspended in Dulbecco's Modified Eagle Medium (DMEM). Cells were plated in a 25 μL micro-island at a density of 4000 cells/μL on poly-D-lysine coated 24-well plates (Sigma). Following adherence, cells were supplemented with warm NEUROBASAL™ media containing 2 mM glutamine, 1×N2, and 100 units of penicillin/streptomycin. Neurotrophic compounds were added at each media addition, including initial plating and DIV 2. A dose response of the peptides (0.03 ng to 10 ng/mL) was added to a 24-well plate following media supplementation.
The neurotrophic effects of DNSP-11 were studied by comparing its effects to the well-known effects of GDNF on the maintenance of primary mesencephalic cell cultures from E14 SD rat embryos. E14 SD rat embryo primary dopaminergic neurons from the ventral mesencephalon were grown for 5 days in vitro and neurotrophic molecules were added at each media change, including initial plating and day 2. […] These effects were similar to those observed for GDNF in these cells, including an increase in the size of TH+ neurons, which was not observed for DNSP-11 (Table 4).
In Table 1, cell survival and morphological parameters were quantified for control (citrate buffer) and experimental (0.1 ng/ml GDNF or 0.1 ng/ml DNSP-11) conditions. For morphology, five fields per well (minimum of 15 cells/field; 3-4 independent experiments) were photographed at 20× magnification and quantified using a Bioquant Image Analysis System. […] Soma size was not increased by the addition of DNSP-11. A one-way ANOVA was used to test for significance among groups, followed by a Newman-Keuls post hoc analysis. Significance between control and experimental conditions was determined at *p<0.05 and **p<0.01.

Chain of GAPDH (P04406 2-335 limits assumed, species assumed): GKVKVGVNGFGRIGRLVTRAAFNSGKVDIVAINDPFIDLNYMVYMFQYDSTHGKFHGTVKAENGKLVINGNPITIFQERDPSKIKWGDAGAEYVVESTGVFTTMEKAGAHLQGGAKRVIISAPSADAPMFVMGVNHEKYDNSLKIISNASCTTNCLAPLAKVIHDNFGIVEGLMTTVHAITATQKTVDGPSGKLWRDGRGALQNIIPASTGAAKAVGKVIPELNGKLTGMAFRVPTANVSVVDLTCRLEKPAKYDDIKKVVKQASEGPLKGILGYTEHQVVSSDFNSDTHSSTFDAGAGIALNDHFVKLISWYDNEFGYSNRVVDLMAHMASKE

B1: GDNF: mature glial cell line-derived neurotrophic factor, homodimer of 32-42 kDa, comparator (protein, listed as Homo sapiens)
chain: SPDKQMAVLPRRERNRQAAAANPENSRGKGRRGQRGKNRGCVLTAIHLNVTDLGLGYETKEELIFRYCSGSCDAAETTYDKILKNLSRNRRLVSDKVGQACCRPIAFDDDLSFLDDNLVYHILRKHSAKRCGCI
modifications: homodimer
notes: mature glial cell line-derived neurotrophic factor, homodimer of 32-42 kDa, comparator
On to B1, for which the “phosphorylation of Erk1/2 (ratio of phosphorylated to non-phosphorylated)” value in test [1] (B65 cells) and in test [1] (MN9D cells) was “elevated levels of activated Erk” throughout. Also, the “augmentation of evoked release of dopamine” value in test [2] is “over 100%”. For the same molecule, in test [2] (young and aged rats), the “increase of basal levels of DOPAC” value is given as 20-25%. Also, the caspase-3 activity entry in test [3] is “significant reduction”. In addition, the “interaction with GAPDH in solution” value in test [4] is listed as “does not interact”. In test [5], the “percent of TUNEL positive cells” value was “significant reduction”. Further, the Cell survival entry in test [6] (0.1 ng/ml, 5 days in vitro, control 100) is listed as “*158 ± 12”. Moreover, the “Average branches per neuron” value in test [6] (0.1 ng/ml, controls 3.8 ± 0.2 (GDNF), 3.1 ± 0.2 (DNSP-11)) is listed as “**4.7 ± 0.2”. Moreover, the “Soma size (um^2)” value in test [6] (0.1 ng/ml, controls 171 ± 4 (GDNF), 168 ± 3 (DNSP-11)) is 177 ± 4 um^2. For the same molecule, in test [6] (0.1 ng/ml, controls 242 ± 12 (GDNF), 222 ± 11 (DNSP-11)), the “Combined neurite length (um)” value was “**310 ± 16 um”. Besides, the “TH+ neuron counts” value in test [6] (0.03, 0.1, 1.0 and 10 ng/ml) was “significantly increase”.
